# Test results published in the DeepSol protein solubility set.
# Assay: soluble on expression in E. coli; label from the status in PepcDB or PDB records
row,Sequence,soluble on expression in E. coli
1,MGSDKIHHHHHHMKITWFGHACFALEMEGKTIVTDPFDESVGYPIPNVTADVVTESHQHFDHNAHHLVKGNFRVIDRPGAYTVNGVKIKGVETFHDPSHGRERGKNIVFVFEGEGIKVCHLGDLGHVLTPAQVEEIGEIDVLLVPVGGTYTIGPKEAKEVADLLNAKVIIPMHYKTKYLKFNLLPVDDFLKLFDSYERVGNILELFEKPKERKVVVMEVQ,soluble
2,MLCTVTEKLYYDDMYMKEFQAEVVSVDSNGIVLDRTAFYPTGGGQPNDTGIIVNDDKTYRVVDVQKHGDDVVHILESVDGLKAGDRIYGKIDWERRYAHMRYHTAIHILDGIVSAKHNSEALLTGGQIYEDRSRIDMNIENFTKEFVDQIIQEANEFISEGHRVYAENISREEAMKRPNLARTEPGRKLIESLPVVRIIVIEGLDEQSDGGTHVANTREVGKIVLRKIENKGRKNKRIEFELSPA,not soluble
3,MSSPKKNFKKPQPKTENQKQALNEERIAELKKSRILGKNRPFKKMIYVDTKAQRKQKHENVAFLKTLQENKESDVPKKRRGRKPKHAPLKEKNNLKLFDILEGSLKSHTENDDTNKVISLLVEVWEKKNKKKDNNSLSNKDIVNVLSKFELPDDEIIFVLDELR,soluble
4,MGSDKIHHHHHHMGIGRGYAVWSPRSIYLTDFVYANFLEELIMQTLIIYSTIDGQTLAICQKMKTIAEQAGEQVALVTLEQADALSLADFDKVLIGASIRYGKHRPELYQFVNRHHAVLDTKINGFFTVNVVARKPLKNTPETNPYMQKFLQLSLWQPQLLEVFAGKIDYPKYGFFDRTMIRFIMWMTKGPTDITGTFEFTDWEKVDAFGNRFSQH,not soluble
5,MGSDKIHHHHHHMAQSSIEWTEMTWNPTTGCTKISAGCKFCYAEIMSKRLKAMGIDKYKDGFKVNIYPDALSIPYTWKSSKVVFVNSMSDLFHEDIPLDYIKKVFQVMNENPQHVFQVLTKRAERLFEVYKELKWTHNIWMGVSVENDKVKNRIDLLRKTSAKVKFLSLEPLIGPLPKLNLKKIDWVIVGGESGHRPRPMDSDWVLDIQEQCLKSDVAFFFKQWGGRNKKANGRLLNGRTYDEMPEIMEIEKVK,not soluble
6,METFYRTHSYLVEHTNAPVRRDLMDEIDWNDRLIGIKGTRGVGKTTFLLQYAKEKFGTDHSCLFINMNNFYFSKYTLVEFAAEFVKRGGKVLLIDQVFKYPEWSHDLRACYEMFPTLKIIFTGSSVMRLKEENPELSGIAKVYYLRGFSFREYLNLQSGNCFRAYTLQEILENHEQIAKTILRNVKPLDYFQDYLHHGFYPFFLEKRNFSENLLKTMNMMIEVDILLIKQIELKYLSKIKKLLYLLAVDGPVAPNVSQLATEIQTSRATVMNYIKYLADARLINMVYPKGEEFPKKPSKLMMHNTNLMYSIYPVKVEEQDVLDTFFMNTLYKDHKLYKGDKGTSFMVDNGLHFRICAEGCKFKNNPNVYYALHKLELGHGNMIPLWLFGFLY,not soluble
7,MYDVVVVGAGPAGSRYARQAASRGLDVVVFEQGEIGKPLACSGHVSTDIWEFTEDARDELFQNEISGARFHTGGPGSQDHPFYKDEVISNVIDRVGLDKHLAGLARDAGADVREAHSVVGVTEDRDGVTVEVRGDDGVETHRAKMVAGCDGPKSRVRRELDLPEPDELLHGVLGFSDEVDHGDFVDVHLTVPRFFAWRIPRGEAGVEYGLAVPPGDDARGRFEEFVDGYGVETDHRCSGLIPIGPPKRVTGRRSFLIGDAAAQTKPFTGGGIRYGMTAADHAAREIDPEDPATLGEYERAWRDDLRQEIRLGHAVRAGYSAPEPIQKAGMKAFEGEIGVHMDRPTTLFSREQLAALFSRSLEHHHHHH,soluble
8,MNTYFDIPHRLVGKALYESYYDHFGQMDILSDGSLYLIYRRATEHVGGSDGRVVFSKLEGGIWSAPTIVAQAGGQDFRDVAGGTMPSGRIVAASTVYETGEVKVYVSDDSGVTWVHKFTLARGGADYNFAHGKSFQVGARYVIPLYAATGVNYELKWLESSDGGETWGEGSTIYSGNTPYNETSYLPVGDGVILAVARVGSGAGGALRQFISLDDGGTWTDQGNVTAQNGDSTDILVAPSLSYIYSEGGTPHVVLLYTNRTTHFCYYRTILLARAVAGSSGWTERVPAYSAPAASGYTSQVVLGGRRILGNLFRETSSTTSGAYQFEVYLGGVPDFESDWFSVSSNSLYTLSHGLQRSPRRVVVEFARSSSPSTWNIVMPSYFNDGGHKGSGAQVEVGSLNIRLGTGAAVWGTGYFGGIDNSATTRLATGYYRVRAWI,soluble
9,MGSDKIHHHHHHMLDKSRLSRFKTQIDSQTEIAKFDALAKEWRDPHGKFKHVLSFNQTRLTAIEDQIASHFGRDLTQDIPFDGLSLLDIGCGVGLLCEPLASQGARVTGIDASEHNITLAHRHANSWSIPIEYRHCLAGDLPREQPQYDVILNTEVIEHVEDQAALVASCCDLLKPGGLMVMATLNRTLRSYLIGIIGAEYIMRYLPTGTHDWHHFVTPQELDEMLTPHGLSTKGVEGMAFNPFTRRWKITSNSAVNYLLYASKPIPGVLEA,not soluble
10,MKWKEQAIILGTRQYGETSVILEVMTRQHGRYMGVVKGGRSRRMAVLLQPGNFVEAEWWARLDEHLGLFRLEALDLHAARLILFPEALYALQLIVFHLHLLPERDPHPILYDILHLFMQSFDEPFINAELLVRFEMRFLEELGFGLDLSRCAATGRLEKLCYVSPKSGRAVCEEAGHPWREKLLNLPQFLVQRTVRPVDFSDIKNGFILTGFFLMRHVWEPRNIKQPSVRISLIQLFEQRFRMQASFVDLKTINRM,not soluble
11,MKQFVVISGKGGTGKTSVTAGLAAVGKDMVLADCDVDAADLHLVLAPEIRERHDFISGVVASIEPEACISCGLCTTHCRYGAIPQGYAPQVAPEHCEGCGVCAHVCPTGAARLSDRRCGEWYVSDTRFGPMVHAALGIGEENSGKLVSTVRTRARELAEARDASVVLIDGSPGVGCPVIASLAGADAALAVTEPTVSALHDLERVHALARHFDVRMAVLLNKADIHPGMAERIIGYCTTHDLPLVGRFGFSPLFVQAQLEGRTLPEQDSGEWRQRFNGVWNQLLALVLEHHHHHH,not soluble
12,MGSDKIHHHHHHMRLDLFFDRLLSTEGDKLATVAKNTILEPSVAYFDFTASGLAYRTIEERIASILPRYANTHSEVTNHALFMTELYDEARANLKRHMDLDEEFALFPCGNGSTGAIKKFQELMGLYLPPRTQKRLSLTPDPALFPVVFVGPYEHHSNEVSYRESPCEVVRIPLDSRGLVDMGVLRAKLGEYQGREIITSFSLASNVTGIIIPYEEISALIRKAGGIVTFDMATASSYMNIPSKFFDAAFFSPHKLLGGVGSCGLLAMRKSLIDSTLPPTFAGGGTVTYVSRIDQYYREDPEYREDAGTPGVLQLLRASLAYQLRNEVGLEFIAKRKKELCAPLVEALRKMERVKIYGDIESCNRLGIFAINIEGISPYEVCQRLSREYLIETRAGCSCAGPYGHDLLGLKDDGLFASRPGWVRISVHYSHSLEQIERLLGALEEIARD,not soluble
13,MSLQTCVLHRLSLPLKFPMRTAHGHIREKQAILVQLVDADGIEGWSECVALAEPTYTEECTDTAWVMLVHHLVPRFARWLRAASQDQDVDPRTVCEALRDVRGNRMSVAAIEMAVWDWYAARTGQPLVGLLGGGRDRVEVSATLGMSESLDVLIQSVDAAVEQGFRRVKLKIAPGRDRAAIKAVRLRYPDLAIAADANGSYRPEDAPVLRQLDAYDLQFIEQPLPEDDWFDLAKLQASLRTPVCLDESVRSVRELKLTARLGAARVLNVKPGRLGGFGATLRALDVAGEAGMAAWVGGMYETGVGRVHGLIAAALPLMRYATDLGPSDRYFEQDVLKEPIAFVEPGVIQVPQCAGVADWVDRDAVRRFSTATWSVDLRTLEGHHHHHH,soluble
14,MSLKVGISMFNILQSTQLSSNTFDFWLEAPRIATHAQAGQFVILRIDEKGERIPLTIAETNPQAGSIRIIFQVIGKTTAALSQLKTSDSLLDITGPLGMPTEVKQYGTVMVVGGGVGIAAIYPIIKALKEAGNRVITILGARTAELVLLQEECRRYSDELIITTDDGSLGKKGLVTEAMEEVIARESVACSWAIGPSIMMKFCTLTAEKHQLPIYVSLNPIMIDGTGMCGGCRVTVDGTMKFACVDGPEFKGNEVNWDEFINRMKQYQEEEAVCFTDRLKEQVEKNGEGGSHHHHHH,soluble
